Measured values taken from US20180127505A1, “HUMANIZED ANTI-AXL ANTIBODIES AND THEIR CONJUGATES” (MEDIMMUNE LIMITED, priority 2015, published 2018).

T1: human Axl-Strep-His (Homo sapiens, UniProt P30530, Q764R)
T1 construct: Strep; His; host or cells: transiently transfected CHO cells
T1 sequence (P30530 26-894 Q764R): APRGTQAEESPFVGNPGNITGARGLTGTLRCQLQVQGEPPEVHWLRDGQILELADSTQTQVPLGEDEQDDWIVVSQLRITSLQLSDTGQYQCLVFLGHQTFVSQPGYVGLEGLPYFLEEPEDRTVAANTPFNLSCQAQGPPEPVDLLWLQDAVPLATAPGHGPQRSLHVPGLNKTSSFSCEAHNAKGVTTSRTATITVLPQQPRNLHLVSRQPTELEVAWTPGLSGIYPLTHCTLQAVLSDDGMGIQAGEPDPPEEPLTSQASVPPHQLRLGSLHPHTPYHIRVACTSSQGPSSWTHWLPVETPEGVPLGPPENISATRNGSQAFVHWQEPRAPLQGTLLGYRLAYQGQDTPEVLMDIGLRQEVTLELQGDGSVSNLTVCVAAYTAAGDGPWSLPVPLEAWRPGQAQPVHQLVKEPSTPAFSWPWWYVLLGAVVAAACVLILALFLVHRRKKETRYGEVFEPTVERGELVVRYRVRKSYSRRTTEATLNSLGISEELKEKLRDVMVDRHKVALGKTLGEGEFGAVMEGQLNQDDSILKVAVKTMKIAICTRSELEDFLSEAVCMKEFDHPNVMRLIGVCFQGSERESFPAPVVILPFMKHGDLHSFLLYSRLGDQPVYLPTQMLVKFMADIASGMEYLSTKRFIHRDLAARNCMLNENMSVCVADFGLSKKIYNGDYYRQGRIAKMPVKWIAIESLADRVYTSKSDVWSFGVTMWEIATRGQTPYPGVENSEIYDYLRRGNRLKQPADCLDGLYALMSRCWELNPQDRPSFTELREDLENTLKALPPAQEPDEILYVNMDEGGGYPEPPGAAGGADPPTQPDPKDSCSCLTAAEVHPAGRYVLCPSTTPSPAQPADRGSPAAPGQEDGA


Assays:
[1] = Protein thermal shift (Tm); format: physicochemical; conditions: 0.5 mg/mL in PBS, HEK293F expression product
Description: Protocol 6: Protein Thermal Shift Protocol
• 96 well optical plate semi-skirted (Starlab cat.L1402-9700). • Protein thermal shift dye kit (Life Technologies cat.446148). • Microamp optical adhesive film (Applied Biosystems) • 7500 Real-Time PCR System (Life Technologies) • Test items: Antibodies from Evitria and Spirogen • Protein thermal shift v1.2 software (Life Technologies)
Protein thermal shift dye (2.5 μL 1:1000 dilution) was added to sample proteins (17.5 μL of 0.5 mg/mL in PBS) in a 96 well optical plate and mixed thoroughly. Every sample was done in quadruplicate. The plate was sealed with a optical adhesive film and bubbles in the wells were removed by centrifugation 1 min at 500 g, then placed on ice. The sealed plate was introduced in the 7500 Real-Time PCR System and subsequently the experiment was set up as follows:
Data analysis and derivation of Tm data were done using the software following the manufacturers instructions.

human Axl-Strep-His = target: T1, human Axl-Strep-His; experiment: SPR measurement of antibody affinity, AXL-Strep-His antigen; format: binding; conditions: for ka, AXL-Strep-His antigen / kd, AXL-Strep-His antigen / Kd: SPR Biacore T200, 25 C, bivalent ligand model (Ab1: heterogeneous ligand model); for affinity for Axl-Strep-His compared with Ab1: SPR; for Kd: read-out: KD1, AXL-Strep-His antigen
Description: Protocol 4A: SPR Measurement of Antibody Affinity
• 1. Sensor Chip CM5 Biacore; Cat. # BR-1000-14 • 2. Amine Coupling Kit (EDC, NHS, ethanolamine-HCl) Biacore; Cat. # BR-1000-50 • 3. Immobilization buffer (10 mM Na acetate, pH 4.0) Biacore; Cat. # BR-1003-49 • 4. 50 mM NaOH Biacore; Cat. # BR-1003-58 • 5. Running buffer (PBS/Tween20 0.05% v/v) • 6. Biacore T200 GE Healthcare • 7. Regeneration solution: 10 mM HCl, 1 M NaCl
• Activate flow cell 2 with NHS-EDC 420s at 5 μl/min, then inject human AxI-Strep-His (Evitria) (10 μg/mL in 10 mM sodium acetate, pH 4.0) to achieve a coupling of […]. Block with ethanolamine for 420s. Repeat the process for flow cell 1 but with no antigen to create a reference flow cell. 12RU AXL fusion protein was coated. • For the Fc fusion, Human Axl-Fc chimera (R&D Systems #154-AL) (5 μg/mL in 10 mM sodium acetate, pH 4.5) was used with the above protocol. 16RU of AXL-Fc was coated. Protocol with AXL-Strep-His Antigen • Serial 10x dilutions of antibody, from 3000 nM, were made in PBS/Tween20. 2x regeneration cycles were used with 10 mM HCl, 1 M NaCl for 30s at 30 μl/min for both cycles. Start-up solution was PBS/Tween20 and set to 3 cycles. • Sample injection parameters were 120s at 30 μl/min, with 600s dissociation time. • Prime and normalise detector were run before sample application with experimental conditions 25 C and sample storage at 4 C. • Kinetic analysis used BIAevaluation software with bivalent ligand binding model. For chimeric 1H12 with AXL-Strep-His, “heterogeneous ligand” binding model was used due to poor fit with bivalent or monovalent algorithms. • Each antibody dilution was injected twice. Protocol with AXL-Fc Chimera Antigen • The above protocol was used except that the running buffer was HBSEP+, serial 10x dilutions of antibody were from 500 nM in HBSEP+ running buffer and were injected for 180 sec. • Analysis used BIAevaluation software with the bivalent binding model.

Row | Molecule | Tm [1] [°C] | ka, AXL-Strep-His antigen (human Axl-Strep-His) [M⁻¹ s⁻¹] | kd, AXL-Strep-His antigen (human Axl-Strep-His) [s⁻¹] | affinity for Axl-Strep-His compared with Ab1 (human Axl-Strep-His) | Kd (human Axl-Strep-His) [nM]
1 | Ab1 (antibody, V domains shown) VH: EVQLVESGGDLVKPGGSLKLSCAASGFTFSSYGMSWVRQTPDKRLEWVATISSGGSYTYYPDSVKGRFTISRDNAKNTLYLQMSSLKSEDTAMYYCARHPIYYTYDDTMDYWGQGTSVTVSS VL: ENVLTQSPAIMAASPGEKVTMTCSASSSVSSGNFHWYQQKPGTSPKLWIYRTSNLASGVPARFSGSGSGTSYSLTISSMEAEDAATYYCQQWSGYPWTFGGGTKLEIK | 69.52 | 13100 | 0.000533 |  | 
2 | Ab2: anti-AXL antibody, VH SEQ ID NO. 2, VL SEQ ID NO. 5, constant region derived from human antibodies (antibody, V domains shown, human constant regions; Synthetic heavy chain variable region 1H12RHA; Synthetic light chain variable region 1H12RKA, 5, constant region derived from human antibodies) VH: MGFKMESQFQVFVFVFLWLSGVDGQVQLVESGGGVVQPGRSLRLSCAASGFTFSSYGMSVRQAPGKGLEWVATISSGGSYTYYPDSVKGRFTISRDNSKNTLYLQMNSLRAEDTAVYYCARHPIYYTYDDTMDYWGQGTTVTVSS VL: MGFKMESQFQVFVFVFLWLSGVDGEIVLTQSPATLSLSPGERATLSCSASSSVSSGNFHWYQQKPGLAPRLLIYRTSNLASGIPDRFSGSGSGTDFTLTISRLEPEDFAVYYCQQWSGYPWTFGPGTKVDIK | 59.71 | 13200 | 0.000441 | higher affinity | 33.4
3 | Ab3: anti-AXL antibody, VH SEQ ID NO. 2, VL SEQ ID NO. 7, constant region derived from human antibodies (antibody, V domains shown, human constant regions; Synthetic heavy chain variable region 1H12RHA; Synthetic light chain variable region 1H12RKB, 7, constant region derived from human antibodies) VH: MGFKMESQFQVFVFVFLWLSGVDGQVQLVESGGGVVQPGRSLRLSCAASGFTFSSYGMSVRQAPGKGLEWVATISSGGSYTYYPDSVKGRFTISRDNSKNTLYLQMNSLRAEDTAVYYCARHPIYYTYDDTMDYWGQGTTVTVSS VL: MGFKMESQFQVFVFVFLWLSGVDGEIVLTQSPGTLSLSPGERATLSCSASSSVSSGNFHWYQQKPGLAPRLLIYRTSNLASGIPARFSGSGSGTDFTLTISSLEPEDFAVYYCQQWSGYPWTFGGGTKLEIK | 62.05 | 19200 | 0.000636 | higher affinity | 33.1
4 | Ab5: anti-AXL antibody, VH SEQ ID NO. 3, VL SEQ ID NO. 7, constant region derived from human antibodies (antibody, V domains shown, human constant regions; Synthetic heavy chain variable region 1H12RHB; Synthetic light chain variable region 1H12RKB, 7, constant region derived from human antibodies) VH: MGFKMESQFQVFVFVFLWLSGVDGEVQLVESGGGLVQPGGSLRLSCAASGFTFSSYGMSWVRQAPGKGLEWVATISSGGSYTYYPDSVKGRFTISRDNAKNSLYLQMNSLRAEDTAVYYCARHPIYYTYDDTMDYWGQGTLVTVSS VL: MGFKMESQFQVFVFVFLWLSGVDGEIVLTQSPGTLSLSPGERATLSCSASSSVSSGNFHWYQQKPGLAPRLLIYRTSNLASGIPARFSGSGSGTDFTLTISSLEPEDFAVYYCQQWSGYPWTFGGGTKLEIK | 63.06 | 18900 | 0.000435 | higher affinity | 
5 | Ab4: anti-AXL antibody, VH SEQ ID NO. 3, VL SEQ ID NO. 5, constant region derived from human antibodies (antibody, V domains shown, human constant regions; Synthetic heavy chain variable region 1H12RHB; Synthetic light chain variable region 1H12RKA, 5, constant region derived from human antibodies) VH: MGFKMESQFQVFVFVFLWLSGVDGEVQLVESGGGLVQPGGSLRLSCAASGFTFSSYGMSWVRQAPGKGLEWVATISSGGSYTYYPDSVKGRFTISRDNAKNSLYLQMNSLRAEDTAVYYCARHPIYYTYDDTMDYWGQGTLVTVSS VL: MGFKMESQFQVFVFVFLWLSGVDGEIVLTQSPATLSLSPGERATLSCSASSSVSSGNFHWYQQKPGLAPRLLIYRTSNLASGIPDRFSGSGSGTDFTLTISRLEPEDFAVYYCQQWSGYPWTFGPGTKVDIK | 60.32 | 9759 | 0.00059 |  | 
